Data: publication PMC5384220, “Highly selective inhibition of histone demethylases by de novo macrocyclic peptides” (Nature Communications, 2017)

Molecular target: T1, KDM2A (human, UniProt Q9Y2K7 1-1162)
T1 sequence (looked up): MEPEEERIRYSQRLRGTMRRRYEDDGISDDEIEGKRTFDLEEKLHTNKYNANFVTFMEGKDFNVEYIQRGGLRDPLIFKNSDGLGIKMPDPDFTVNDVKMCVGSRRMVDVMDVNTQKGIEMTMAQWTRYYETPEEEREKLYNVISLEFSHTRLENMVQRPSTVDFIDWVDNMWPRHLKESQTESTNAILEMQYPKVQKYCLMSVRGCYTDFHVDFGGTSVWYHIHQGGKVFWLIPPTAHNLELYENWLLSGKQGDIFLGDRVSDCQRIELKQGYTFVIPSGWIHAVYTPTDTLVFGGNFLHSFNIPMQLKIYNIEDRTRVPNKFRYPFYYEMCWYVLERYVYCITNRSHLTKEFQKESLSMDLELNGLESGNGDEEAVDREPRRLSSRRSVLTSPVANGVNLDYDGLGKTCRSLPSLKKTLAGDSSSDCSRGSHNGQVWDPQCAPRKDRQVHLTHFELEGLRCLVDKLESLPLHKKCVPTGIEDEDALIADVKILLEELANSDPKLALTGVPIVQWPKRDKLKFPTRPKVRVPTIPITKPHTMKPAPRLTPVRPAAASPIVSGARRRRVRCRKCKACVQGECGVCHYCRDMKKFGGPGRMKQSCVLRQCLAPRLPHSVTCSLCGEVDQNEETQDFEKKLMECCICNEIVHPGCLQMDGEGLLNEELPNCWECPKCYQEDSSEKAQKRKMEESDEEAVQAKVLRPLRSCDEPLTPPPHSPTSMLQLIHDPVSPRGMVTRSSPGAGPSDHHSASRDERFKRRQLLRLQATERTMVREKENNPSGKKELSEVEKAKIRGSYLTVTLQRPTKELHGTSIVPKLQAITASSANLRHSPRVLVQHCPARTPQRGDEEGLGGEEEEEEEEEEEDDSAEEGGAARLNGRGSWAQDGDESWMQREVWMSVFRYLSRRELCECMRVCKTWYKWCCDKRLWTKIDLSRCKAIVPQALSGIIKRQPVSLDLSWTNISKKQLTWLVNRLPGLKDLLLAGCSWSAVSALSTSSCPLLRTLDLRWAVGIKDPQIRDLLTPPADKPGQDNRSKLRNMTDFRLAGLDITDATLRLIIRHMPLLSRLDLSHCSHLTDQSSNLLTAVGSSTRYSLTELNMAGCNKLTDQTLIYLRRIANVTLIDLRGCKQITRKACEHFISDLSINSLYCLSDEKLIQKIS
Experiment: cell-based or functional assay

B1: CP4 (peptide)
chain: YLKSRRSGLTWIPC
modifications: not fully specified; N-terminal L-Tyr (^LTyr library, N-chloroacetyl-L-Tyr) cyclised by a thioether to a downstream cysteine
IC50 of inhibition of demethylase activity (AlphaScreen activity assay): > 10 µM
